Values belong to the binder of their own block, whether it stands above or below them. Bridge positions count the residues as written; N and C are the ends.
How the values were obtained:
Assay in all cases: radioligand displacement (antagonist radioligand), 10 µM
[1] = biological target: 5-HT transporter (h) (human), P31645; conditions: remark: other sources report otherwise
[2] = biological target: Ca2+ channel (L, dihydropyridine site)
H2 (h) (human), P25021 = conditions: remark: other sources report otherwise
KV channel = biological target: KV channel
M1 (h) (human), P11229 = biological target: T1, M1 (h) (human), P11229; conditions: remark: other sources report otherwise
T1 chain: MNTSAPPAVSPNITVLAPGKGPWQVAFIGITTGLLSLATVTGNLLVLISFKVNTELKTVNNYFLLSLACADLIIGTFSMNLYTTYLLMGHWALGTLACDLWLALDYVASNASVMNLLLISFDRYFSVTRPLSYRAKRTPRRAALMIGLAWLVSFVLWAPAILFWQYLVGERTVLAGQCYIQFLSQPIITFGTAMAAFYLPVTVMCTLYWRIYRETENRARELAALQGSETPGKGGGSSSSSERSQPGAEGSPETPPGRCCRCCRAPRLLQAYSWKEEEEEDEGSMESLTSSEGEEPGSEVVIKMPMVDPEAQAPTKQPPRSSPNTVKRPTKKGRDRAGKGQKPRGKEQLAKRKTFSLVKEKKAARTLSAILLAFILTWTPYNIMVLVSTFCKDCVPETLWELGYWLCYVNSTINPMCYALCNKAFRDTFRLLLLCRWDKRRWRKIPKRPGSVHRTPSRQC

M2 (h) (human), P08172 = biological target: T2, M2 (h) (human), P08172; conditions: remark: other sources report otherwise
T2 chain: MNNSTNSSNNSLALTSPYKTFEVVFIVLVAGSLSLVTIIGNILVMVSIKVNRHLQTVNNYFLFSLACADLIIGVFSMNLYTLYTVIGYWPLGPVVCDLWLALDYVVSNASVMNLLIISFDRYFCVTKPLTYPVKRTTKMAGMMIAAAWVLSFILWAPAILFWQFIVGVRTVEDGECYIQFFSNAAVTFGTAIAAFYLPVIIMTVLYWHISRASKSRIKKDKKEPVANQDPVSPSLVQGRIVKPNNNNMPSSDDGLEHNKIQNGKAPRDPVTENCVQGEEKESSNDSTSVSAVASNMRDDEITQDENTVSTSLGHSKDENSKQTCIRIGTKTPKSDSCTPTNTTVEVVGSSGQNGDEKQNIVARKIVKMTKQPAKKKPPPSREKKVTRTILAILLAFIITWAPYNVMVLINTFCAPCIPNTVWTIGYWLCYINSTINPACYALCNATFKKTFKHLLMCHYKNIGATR

NMDA = biological target: NMDA
[3] = biological target: T3, alpha 2A (h) (human), P08913; conditions: remark: other sources report otherwise
T3 chain: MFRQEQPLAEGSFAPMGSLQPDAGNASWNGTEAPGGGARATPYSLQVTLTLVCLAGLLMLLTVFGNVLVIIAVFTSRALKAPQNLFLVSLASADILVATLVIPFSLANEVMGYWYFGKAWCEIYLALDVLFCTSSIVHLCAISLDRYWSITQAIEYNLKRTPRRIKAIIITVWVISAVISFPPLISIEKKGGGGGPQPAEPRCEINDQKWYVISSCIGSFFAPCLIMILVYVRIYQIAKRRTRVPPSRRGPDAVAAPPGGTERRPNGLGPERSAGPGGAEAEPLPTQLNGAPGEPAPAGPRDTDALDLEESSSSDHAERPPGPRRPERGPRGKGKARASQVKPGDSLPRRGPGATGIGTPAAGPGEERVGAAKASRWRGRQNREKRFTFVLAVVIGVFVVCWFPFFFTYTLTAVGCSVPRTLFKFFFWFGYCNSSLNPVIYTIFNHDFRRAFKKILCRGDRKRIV

[4] = biological target: T4, dopamine transporter (h) (human), Q01959; conditions: remark: other sources report otherwise
T4 chain: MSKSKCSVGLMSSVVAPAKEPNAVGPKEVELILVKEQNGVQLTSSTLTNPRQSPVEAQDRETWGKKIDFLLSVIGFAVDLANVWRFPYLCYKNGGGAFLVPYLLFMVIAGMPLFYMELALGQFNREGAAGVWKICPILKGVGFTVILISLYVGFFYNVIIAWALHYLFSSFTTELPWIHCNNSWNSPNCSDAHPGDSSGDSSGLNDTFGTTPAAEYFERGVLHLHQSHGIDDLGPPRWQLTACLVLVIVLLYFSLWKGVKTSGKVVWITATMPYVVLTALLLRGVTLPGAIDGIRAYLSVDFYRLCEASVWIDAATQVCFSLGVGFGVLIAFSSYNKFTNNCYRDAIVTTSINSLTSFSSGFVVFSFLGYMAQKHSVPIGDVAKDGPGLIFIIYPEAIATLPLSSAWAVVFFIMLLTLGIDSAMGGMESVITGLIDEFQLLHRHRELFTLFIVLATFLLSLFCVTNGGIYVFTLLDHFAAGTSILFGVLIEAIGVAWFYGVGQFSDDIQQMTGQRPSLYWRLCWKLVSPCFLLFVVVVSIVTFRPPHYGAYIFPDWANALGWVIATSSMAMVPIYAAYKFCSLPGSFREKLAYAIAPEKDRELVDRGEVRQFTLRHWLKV

[5] = biological target: norepinephrine transporter (h) (human), P23975; conditions: remark: other sources report otherwise
Chain of norepinephrine transporter (h) (human), P23975 (P23975 whole entry): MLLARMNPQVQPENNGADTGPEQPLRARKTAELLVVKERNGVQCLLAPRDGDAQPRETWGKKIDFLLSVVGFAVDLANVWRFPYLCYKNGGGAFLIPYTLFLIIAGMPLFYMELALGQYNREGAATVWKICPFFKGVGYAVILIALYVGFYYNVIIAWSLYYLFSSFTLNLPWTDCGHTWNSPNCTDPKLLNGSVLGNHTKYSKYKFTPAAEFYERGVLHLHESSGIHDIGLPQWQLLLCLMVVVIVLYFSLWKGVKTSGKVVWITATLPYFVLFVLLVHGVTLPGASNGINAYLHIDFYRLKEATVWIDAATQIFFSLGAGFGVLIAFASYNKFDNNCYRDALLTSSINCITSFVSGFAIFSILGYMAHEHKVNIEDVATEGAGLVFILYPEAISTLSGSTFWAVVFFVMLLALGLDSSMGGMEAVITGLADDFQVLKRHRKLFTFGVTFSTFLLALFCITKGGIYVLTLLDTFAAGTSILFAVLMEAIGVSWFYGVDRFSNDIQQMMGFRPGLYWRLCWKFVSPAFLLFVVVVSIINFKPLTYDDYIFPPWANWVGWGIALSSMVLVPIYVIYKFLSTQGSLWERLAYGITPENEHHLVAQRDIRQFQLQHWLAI

Chain of H2 (h) (human), P25021 (P25021 whole entry): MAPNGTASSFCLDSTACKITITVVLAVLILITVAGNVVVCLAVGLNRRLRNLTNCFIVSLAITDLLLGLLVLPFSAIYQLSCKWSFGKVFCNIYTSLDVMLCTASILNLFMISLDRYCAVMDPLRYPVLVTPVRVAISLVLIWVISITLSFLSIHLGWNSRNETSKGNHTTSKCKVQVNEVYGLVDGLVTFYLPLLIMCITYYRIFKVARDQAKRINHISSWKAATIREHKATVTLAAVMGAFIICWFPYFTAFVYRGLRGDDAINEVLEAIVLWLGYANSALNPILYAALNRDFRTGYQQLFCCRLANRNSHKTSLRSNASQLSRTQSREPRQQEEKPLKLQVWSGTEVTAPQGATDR
Chain of 5-HT transporter (h) (human), P31645 (P31645 whole entry): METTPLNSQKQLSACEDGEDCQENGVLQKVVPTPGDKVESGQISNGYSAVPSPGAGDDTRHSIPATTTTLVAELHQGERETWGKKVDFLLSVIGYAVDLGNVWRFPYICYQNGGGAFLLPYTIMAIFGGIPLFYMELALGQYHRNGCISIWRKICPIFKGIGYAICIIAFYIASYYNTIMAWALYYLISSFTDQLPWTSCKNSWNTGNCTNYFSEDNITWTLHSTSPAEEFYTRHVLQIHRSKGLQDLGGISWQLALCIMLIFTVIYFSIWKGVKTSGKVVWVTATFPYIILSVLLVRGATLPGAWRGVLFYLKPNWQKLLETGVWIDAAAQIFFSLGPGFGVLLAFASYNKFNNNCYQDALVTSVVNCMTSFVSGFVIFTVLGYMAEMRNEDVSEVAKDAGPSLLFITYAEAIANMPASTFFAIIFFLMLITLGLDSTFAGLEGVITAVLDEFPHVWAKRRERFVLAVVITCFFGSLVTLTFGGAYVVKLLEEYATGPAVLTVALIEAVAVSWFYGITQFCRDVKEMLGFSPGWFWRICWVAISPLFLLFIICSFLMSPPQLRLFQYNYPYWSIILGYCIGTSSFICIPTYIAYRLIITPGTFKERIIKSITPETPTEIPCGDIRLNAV

% Inhibition of Specific Binding [1]: -8% | % Inhibition of Specific Binding [2]: 54% | % Inhibition of Specific Binding (H2 (h) (human), P25021): -16% | % Inhibition of Specific Binding (KV channel): 4% | % Inhibition of Specific Binding (M1 (h) (human), P11229): 8% | % Inhibition of Specific Binding (M2 (h) (human), P08172): 7% | % Inhibition of Specific Binding (NMDA): 1% | % Inhibition of Specific Binding [3]: 2% | % Inhibition of Specific Binding [4]: 7% | % Inhibition of Specific Binding [5]: -5%
B1: Hex-[Cys(tMeBn(DOTA-AET))-Pro-Pro-Thr-Gln-Phe-Cys]-OH (peptide)
peptide: Hex-CPPTQFC-OH
modifications: bridge 1-7; not fully specified (bridges); printed as Hex-[Cys(tMeBn(DOTA-AET))-Pro-Pro-Thr-Gln-Phe-Cys]-OH

B2: Hex-[Cys(tMeBn(DOTA-PP))-Pro-Pro-Thr-Gln-Phe-Cys]-Asp-NH2 (peptide)
peptide: Hex-CPPTQFCD-NH2
modifications: bridge 1-7; not fully specified (bridges); printed as Hex-[Cys(tMeBn(DOTA-PP))-Pro-Pro-Thr-Gln-Phe-Cys]-Asp-NH2
% Inhibition of Specific Binding [1]: -3% | % Inhibition of Specific Binding [2]: 42% | % Inhibition of Specific Binding (H2 (h) (human), P25021): -5% | % Inhibition of Specific Binding (KV channel): -5% | % Inhibition of Specific Binding (M1 (h) (human), P11229): 6% | % Inhibition of Specific Binding (M2 (h) (human), P08172): -4% | % Inhibition of Specific Binding (NMDA): 9% | % Inhibition of Specific Binding [3]: -9% | % Inhibition of Specific Binding [4]: 12% | % Inhibition of Specific Binding [5]: -8%

— patent US20230212549A1, “COMPOUNDS COMPRISING A […] LIGAND AND USE THEREOF” (priority 2021, published 2023)
